Assay results from patent publication US20240241124.

Tests used:
[1] = biological target: T1, SecV sensor, EDANS/DABCYL version (β-sec^V1 strand annealed to ES3) (not fully specified)
T1 chain: RKFEADLNVEERC

[2] = biological target: T2, SecV sensor, HiLyte-Fluor 488/QXL520 version (β-sec^V2 strand annealed to ES3) (not fully specified)
T2 chain: KFEADLNVEKC

[3] = biological target: SecV sensor (version not stated)

B1: recombinant human BACE1 (beta-site APP cleaving enzyme 1), purified enzyme (ab271386, Abcam) (protein)
chain: TQHGIRLPLRSGLGGAPLGLRLPRETDEEPEEPGRRGSFVEMVDNLRGKSGQGYYVEMTVGSPPQTLNILVDTGSSNFAVGAAPHPFLHRYYQRQLSSTYRDLRKGVYVPYTQGKWEGELGTDLVSIPHGPNVTVRANIAAITESDKFFINGSNWEGILGLAYAEIARPDDSLEPFFDSLVKQTHVPNLFSLQLCGAGFPLNQSEVLASVGGSMIIGGIDHSLYTGSLWYTPIRREWYYEVIIVRVEINGQDLKMDCKEYNYDKSIVDSGTTNLRLPKKVFEAAVKSIKAASSTEKFPDGFWLGEQLVCWQAGTTPWNIFPVISLYLMGEVTNQSFRITILPQQYLRPVEDVATSQDDCYKFAISQSSTGTVMGAVIMEGFYVVFDRARKRIGFAVSACHVHDEFRTAAVEGPFVTLDMEDCGYNIPQTDESTLMT
fold change in sensor response (G/R ratio), in vitro BACE1 activity assay [1]: A >3.0-fold change in sensor response was observed when EDANS and DABCYL were used as a FRET pair | fold change in sensor response (G/R ratio), in vitro BACE1 activity assay [2]: a >1.8-fold response when HyLite-488 and QXL520 were used as a FRET pair | fold change in the signal (G/R ratio), in vitro specificity assay [2]: upon addition of BACE1 the sensor showed a 1.8-fold change in the signal | lowest amount of BACE1 giving detectable change in sensor signal [3]: The SecV sensor showed detectable changes in signal from 8 ng and remains linear until 80 ng | upper end of linear range of sensor signal against amount of BACE1 [3]: The SecV sensor showed detectable changes in signal from 8 ng and remains linear until 80 ng
